Data reported in paper PMC4111604, “Structural Characterization of the Saccharomyces cerevisiae THO Complex by Small-Angle X-Ray Scattering” (PLoS ONE, 2014).

Target: the molecule itself
Experiment: SAXS; purified proteins or co-expressed, co-purified complexes in solution; 50 mM Tris-Cl pH 8.0, 100 mM KCl, 5 mM MgCl2, 5 mM 2-mercaptoethanol; 10°C or 25°C; 3-6 concentrations between 7.8 and 0.15 mg/ml; homodimers told from measurements at low concentrations

| Protein | stoichiometry N |
| --- | --- |
| Mft1pΔC336-392 with C-terminal 6xHis tag (isolated protein) (domain or fragment, Saccharomyces cerevisiae, UniProt P33441 1-335, looked up, pET-30 Ek/LIC vector; purified without TEV cleavage; also called isolated Mft1p; source: E. coli Rosetta (DE3), purified (Ni-NTA, Source 15Q, Superdex 200); not shown: 6xHis, C-terminal, kept) MPLSQKQIDQVRTKVHYSEVDTPFNKYLDILGKVTKLTGSIINGTLSNDDSKIEKLTEQNISQLKESAHLRFLDLQSSIDTKKVADENWETCQQETLAKLENLKDKLPDIKSIHSKLLLRIGKLQGLYDSVQVINREVEGLSEGRTSLVVTRAEWEKELGTDLVKFLIEKNYLKLVDPGLKKDSSEERYRIYDDFSKGPKELESINASMKSDIENVRQEVSSYKEKWLRDAEIFGKITSIFKEELLKRDGLLNEAEGDNIDEDYESDEDEERKERFKRQRSMVEVNTIENVDEKEESDHEYDDQEDEENEEEDDMEVDVEDIKEDNEVDGESSQQ | 2 |
| Thp2p with C-terminal 6xHis tag (isolated protein) (natural protein, Saccharomyces cerevisiae, UniProt O13539 1-261, looked up, Thp2p, Saccharomyces cerevisiae; pET-30 Ek/LIC vector; purified without TEV cleavage; also called isolated Thp2p; source: E. coli Rosetta (DE3), purified (Ni-NTA, Source 15Q, Superdex 200); not shown: 6xHis, C-terminal, kept) MTKEEGRTYFESLCEEEQSLQESQTHLLNILDILSVLADPRSSDDLLTESLKKLPDLHRELINSSIRLRYDKYQTREAQLLEDTKTGRDVAAGVQNPKSISEYYSTFEHLNRDTLRYINLLKRLSVDLAKQVEVSDPSVTVYEMDKWVPSEKLQGILEQYCAPDTDIRGVDAQIKNYLDQIKMARAKFGLENKYSLKERLSTLTKELNHWRKEWDDIEMLMFGDDAHSMKKMIQKIDSLKSEINAPSESYPVDKEGDIVLE | 2 |
